Reference: patent US11479601B2, “Antibodies specific to Sonic Hedgehog and method of use thereof” (The Regents of the University of California, priority 2016, dated 2022)
Several values for one entry are separate records, joined by “and”; a condition that tells them apart may be missing. Identical values can stand only once.

Legend:
[1] = tested on: A549 cell subcutaneous xenograft tumor; assay: A549 subcutaneous xenograft, intra-tumor injection of C-terminal Shh antibody; assay type: in vivo, mice
Procedure: For xenograft formation, female nude mice, 5 to 10 weeks old, were injected subcutaneously (SC) with 10 million A549 cells in the dorsal area in a volume of […]. For SC inoculation of sorted cells, 1,500 cells of A549 Shh+ or Shh− cells were injected in a volume of […]. For intra-veinous injection of sorted cells, 1,000 cells of A549 Shh+ or Shh− cells were injected in the tail vein. For the in vivo treatment assay, after xenograft formation, animals were injected intravenously with cisplatin (10 mg/kg weekly), docetaxel (10 mg/kg twice a week) or vehicle, and intraperitoneally with GDC0449 (20 mg/kg daily) or vehicle. Each group consisted in 4-5 mice. Tumor size was determined twice a week, and tumor volumes were calculated using width (x) and length (y) (x^2y/2, where x<y). Tumors were collected after mice euthanasia, and cell dissociation was performed as for fresh human samples (cf supra). Flow cytometry and FACS were done as described supra. All animals were cared in accord with University of California San Francisco (UCSF) guidelines.
(§1) The in vivo effect of the C-terminal Shh antibodies were tested using the A549 cell subcutaneous xenograft tumor model in mice, as described in Example 1. After xenograft formation, animals were intra-tumor injected with a C terminal Shh antibody (2G4 or 2D9; each at 158 μg), or a control solution, 3 times a week for about 3 weeks (at 2-3 day intervals). Tumor volume was determined, as described in Example 1, every 2 days. Weight and size of the excised tumor were determined after the antibody treatment. A portion of the excised tumor was sectioned for immunohistochemical analysis of Shh protein expression, and RNA was extracted from another portion of the excised tumor for analysis of Gli1 expression.

Shh = assay: Western blot binding to purified and cell-expressed Shh; set-up: species or system human; details: purified Shh and Shh expressed endogenously and/or exogenously in cells
Text: FIGS. 15A and 15B. Antibodies bind target SHh via Western blot. (FIG. 15A) Purified, recombinant human Shh (19.7 kDa, >98% purity by SDS-PAGE) was probed by the indicated antibodies. (FIG. 15B) Cell lysates from HEK-293T cells (PHX—Phoenix cells), with or without exogenous expression of full-length Shh, and A549 cells were probed with the antibodies produced by clones 2G4 and 2D9. Full-length Shh: ˜50 kDa; N-terminal Shh: ˜19 kDa; C-terminal Shh: ˜25 kDa. Sample 2 was lysate from PHX cells transfected with full-length Shh DNA for about 24 hours. The exogenously expressed Shh appears to be cleaved into N-terminal and C-terminal Shh peptides. Both PHX cells and A549 cells endogenously express Shh.

[2] = tested on: Shh 247-264 AA and Shh 448-462 AA peptides; assay: Biolayer interferometry (Octet RED 384) with Shh peptide-mimic ligands; assay type: binding, human; details: 37-3000 nM peptides; versus IgG control antibody
Procedure: Antibody immobilization was checked via Octet® Software (ForteBio) prior to introduction of increasing concentrations (37, 111, 333, 1000, 3000 nM) of Sonic Hedgehog peptide-mimic ligands (Shh 247-264 AA and Shh 448-462 AA). Graphical output from the Octet® Software of representative data from two independent experiments is presented.

[3] = tested on: A549-derived NSCLC xenografts; assay: Antitumor efficacy in NSCLC A549 xenograft model (8 mg/kg); assay type: in vivo, mice; details: 3 times a week for 3 weeks, versus control IgG
Procedure: 7-week old female nude mice (Jackson Laboratories) were injected with 10×10^6 NSCLC A549 cells in 50% matrigel in the flank region. […] 8 mg/kg therapeutic or control antibodies were administered three times a week for approximately 3 weeks. Tumor volumes were calculated using the formula (V=L×W^2) with recorded caliper measurements. At the end point, tumors were harvested, weighed and imaged. All animal procedures were performed under IACUC-approved protocols and guidelines.

Shh protein = assay: Ex vivo Shh staining of excised A549 xenograft tumors; assay type: in vivo, mice
Procedure: as §1
Control IgG and Ab 1C11-2G4-treated A549 tumors harvested from mice were sectioned ([…]) and stained with a commercially available Sonic Hedgehog (Shh) antibody (Abcam 53281, 1:100) post acetone fixation, 0.2% Triton-X 100 permeabilization and serum blocking steps. A FITC-conjugated secondary antibody (1:1000) and […] DAPI (Vector Laboratories) mounting medium were used to stain sections prior to imaging at 20× magnification using a Zeiss Axiolmager 2 fluorescence microscope. Captured images were processed via ImageJ software (available at https://imagej.nih.gov/ij/download.html) and representative images are presented.
To assess the effects of antibody administration on hedgehog epitope occupancy, tumors were sectioned and stained with a commercial antibody specific for sonic hedgehog (Shh). […] Confirmatory results were observed when ground up permeabilized tumor cells were labeled with the commercially available Shh antibody and assessed using flow cytometry; 1C11-2G4-treated tumors (20%-Shh-labeled) contrasted with IgG controls (80%-Shh-labeled) (FIG. 46B).

GLI = assay: Ex vivo GLI expression in excised A549 xenograft tumors; set-up: species or system mice; details: tumors after 8 mg/kg treatment, versus IgG controls
Procedure: The in vivo effect of the C-terminal Shh antibodies were tested using the A549 cell subcutaneous xenograft tumor model in mice, as described in Example 1. After xenograft formation, animals were intra-tumor injected with a C terminal Shh antibody (2G4 or 2D9; each at 158 μg), or a control solution, 3 times a week for about 3 weeks (at 2-3 day intervals). Tumor volume was determined, as described in Example 1, every 2 days. Weight and size of the excised tumor were determined after the antibody treatment. […]
Total protein from whole-cell lysates was prepared with M-PER buffer (ThermoFisher Scientific) and from frozen tissues with T-PER (ThermoFisher Scientific) supplemented with protease and phosphatase inhibitors (Roche). Subsequently protein concentrations were determined via a Bradford assay. Equal quantities of proteins were combined with 5× protein loading buffer and separated by SDS-PAGE followed by PVDF membrane transfer. […]
Antibody-treated tumors were harvested to extract total RNA using Trizol (Invitrogen) and cDNA was synthesized using reverse transcriptase from iScript's cDNA Synthesis Kit (Bio-Rad). Real-time quantitative reverse transcript-polymerase chain reaction (qRT-PCR) was performed with TaqMan® Universal PCR Master Mix (Life Technologies) using gene specific PCR primers for human […] (Life Technologies). […]

B1: 2G4: purified mouse monoclonal C-terminal Shh antibody from hybridoma sub-clone 2G4 of clone 1C11, IgG1 kappa (antibody, V domains shown)
VH: EVKLVESGGGLVKPGGSLKLSCAASGFTFSSYTMSWVRQTPAKRLEWVATISSGGGNTYYPDSVKGRFTISRDNARNTLYLQMSSLRSEDTAMYYCARDYRSLFAYWGQGTLVTVSA
VL: QIVLTQSPAIMSASPGEKVTITCSASSSVSYMHWFQQKPGTSPKLWIYSTSNLASGVPARFSGSGSGTSYSLTISRMEAEDAATYYCQQRSSYPFTFGSGTKLEIK
- Average % change in tumor volume, relative to day −2 ([1]; Day 0): 104.50%
- Average change in tumor volume ([1]; Day 0, 158 μg intra-tumor 3 times a week): 14.6 mm^3
- Average % change in tumor volume, relative to day −2 ([1]; Day 2): 90.20%
- Average change in tumor volume ([1]; Day 2): −21.7 mm^3
- Average % change in tumor volume, relative to day −2 ([1]; Day 5): 103.10%
- Average change in tumor volume ([1]; Day 5): 15.3 mm^3
- Average % change in tumor volume, relative to day −2 ([1]; Day 7): 105.80%
- Average change in tumor volume ([1]; Day 7): 33.5 mm^3
- Average % change in tumor volume, relative to day −2 ([1]; Day 12): 121.90%
- Average change in tumor volume ([1]; Day 12): 103 mm^3
- Average % change in tumor volume, relative to day −2 ([1]; Day 14): 137.70%
- Average change in tumor volume ([1]; Day 14): 138.2 mm^3
- Average % change in tumor volume, relative to day −2 ([1]; Day 16): 148%
- Average change in tumor volume ([1]; Day 16): 174.04 mm^3
- Average % change in tumor volume, relative to day −2 ([1]; Day 19): 189.60%
- Average change in tumor volume ([1]; Day 19): 277.7 mm^3
- Average % change in tumor volume, relative to day −2 ([1]; Day 21): 202.40%
- Average change in tumor volume ([1]; Day 21): 337.8 mm^3
- Average % change in tumor volume, relative to day −2 ([1]; Day −2): 100%
- Weight of tumor after treatment, AVG ([1]; average of 3 animals): 0.0644
- Weight of tumor after treatment ([1]; individual animals): 0.048 and 0.0966 and 0.0486
- binding to Shh by Western blot (Shh): bound to purified Shh
- binding response to Shh peptide-mimic ligands (BLI) [2]: increases in binding response
- tumor volume [3]: significant reduction in tumor volume
- tumor weight of harvested tumors [3]: decrease in tumor weight
- cells expressing Shh protein in excised tumor (immunostaining) (Shh protein; intra-tumor antibody 158 μg, compared to control tumor samples): fewer cells expressing Shh protein
- number of Shh-labeled cells in permeabilized tumor sections (immunofluorescence) (Shh protein; tumors after 8 mg/kg treatment, versus IgG controls): significant reduction in the number of Shh-labeled cells
- Shh-labeled cells in ground up permeabilized tumor cells (flow cytometry, commercial Shh antibody) (Shh protein; tumors after 8 mg/kg treatment, IgG controls 80%): 20%
- GLI transcripts (qRT-PCR) and GLI polypeptide expression (Western blot) in tumors (GLI): significant reduction in GLI transcripts
